Literature values, collected in PMC7768499.

Experiments:
IgA (Homo sapiens) = IgA (Homo sapiens) (UniProt P01876)
IgA2 (Homo sapiens) = IgA2 (Homo sapiens) (UniProt P01877)
IgA1 (Homo sapiens) = IgA1 (Homo sapiens) (UniProt P01876)
Chain of IgA1 (Homo sapiens) (P01876 whole entry): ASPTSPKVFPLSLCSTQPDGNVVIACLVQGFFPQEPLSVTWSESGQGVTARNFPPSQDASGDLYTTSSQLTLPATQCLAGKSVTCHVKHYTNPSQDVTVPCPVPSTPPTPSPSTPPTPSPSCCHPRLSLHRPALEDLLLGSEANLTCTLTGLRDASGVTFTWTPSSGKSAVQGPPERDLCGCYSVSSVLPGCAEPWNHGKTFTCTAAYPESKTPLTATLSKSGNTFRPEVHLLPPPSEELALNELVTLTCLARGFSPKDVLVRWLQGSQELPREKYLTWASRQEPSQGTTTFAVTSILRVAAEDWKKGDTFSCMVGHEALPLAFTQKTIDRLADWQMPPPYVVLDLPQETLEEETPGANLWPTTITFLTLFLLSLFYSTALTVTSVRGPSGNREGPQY

Chain of FcαRI (P24071 22-287): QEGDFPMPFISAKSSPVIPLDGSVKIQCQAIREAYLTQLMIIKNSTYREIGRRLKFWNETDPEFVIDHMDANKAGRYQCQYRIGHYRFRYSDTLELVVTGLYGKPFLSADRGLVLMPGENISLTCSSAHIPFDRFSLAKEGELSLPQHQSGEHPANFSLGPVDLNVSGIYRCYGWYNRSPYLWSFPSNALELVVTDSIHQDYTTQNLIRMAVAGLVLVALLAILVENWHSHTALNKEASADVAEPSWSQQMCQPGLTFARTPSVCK
Chain of IgA (Homo sapiens) (P01876 whole entry): as the sequence (P01876 whole entry) above
Chain of IgA2 (Homo sapiens) (P01877 whole entry): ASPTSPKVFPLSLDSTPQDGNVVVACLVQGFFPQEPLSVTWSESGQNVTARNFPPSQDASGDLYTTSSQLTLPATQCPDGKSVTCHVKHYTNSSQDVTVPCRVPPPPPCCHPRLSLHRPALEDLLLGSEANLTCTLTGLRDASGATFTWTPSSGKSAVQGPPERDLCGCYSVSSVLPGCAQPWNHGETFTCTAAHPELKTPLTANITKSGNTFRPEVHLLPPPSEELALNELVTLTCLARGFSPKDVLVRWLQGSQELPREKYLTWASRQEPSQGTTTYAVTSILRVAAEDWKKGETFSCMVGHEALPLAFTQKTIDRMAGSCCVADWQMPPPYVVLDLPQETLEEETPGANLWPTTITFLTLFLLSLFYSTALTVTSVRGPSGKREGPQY

Kd (IgA (Homo sapiens)): 20 nM
Kd (IgA2 (Homo sapiens)): 20 nM
Kd (IgA1 (Homo sapiens)): 155 nM
Substance: FcαRI (from UniProt P24071)
